These are literature values, as cited in article PMC3760879.

This series deals with Asp97 (UniProt position 97, VFRYIDWLLTV). The note with it: dark/ground state implied (protonation of the acceptor group at neutral pH); not explicitly stated.

Regarding “Proteorhodopsin (PR) (uncultured marine gamma-proteobacterium (the article says only 'γ-proteobacteria'))”, the pKa entry is on record as “around 7.2”.
